According to patent publication US20080226630A1 (SYMPHOGEN A S, published 2008):

T1: recombinant human fractalkine (CX3CL1; R&D systems) (human, UniProt P78423 25-100)
T1 sequence (looked up): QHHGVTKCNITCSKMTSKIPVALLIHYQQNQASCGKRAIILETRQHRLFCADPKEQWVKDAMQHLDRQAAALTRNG

T2: G protein of RSV strain Long (subtype A) (human respiratory syncytial virus …, UniProt P20895 1-298)
T2 chain: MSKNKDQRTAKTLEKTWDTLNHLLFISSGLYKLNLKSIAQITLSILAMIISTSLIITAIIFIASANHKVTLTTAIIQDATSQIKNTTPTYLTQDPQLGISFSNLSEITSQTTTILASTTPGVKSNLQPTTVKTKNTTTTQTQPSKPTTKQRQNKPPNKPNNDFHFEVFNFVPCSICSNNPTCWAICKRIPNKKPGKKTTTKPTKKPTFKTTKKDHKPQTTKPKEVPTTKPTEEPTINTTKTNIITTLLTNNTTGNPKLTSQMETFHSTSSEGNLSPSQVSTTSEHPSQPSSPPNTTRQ

T3: G protein of RSV strain 18537 (subtype B) (human respiratory syncytial virus …, UniProt P20896 1-292)
T3 sequence: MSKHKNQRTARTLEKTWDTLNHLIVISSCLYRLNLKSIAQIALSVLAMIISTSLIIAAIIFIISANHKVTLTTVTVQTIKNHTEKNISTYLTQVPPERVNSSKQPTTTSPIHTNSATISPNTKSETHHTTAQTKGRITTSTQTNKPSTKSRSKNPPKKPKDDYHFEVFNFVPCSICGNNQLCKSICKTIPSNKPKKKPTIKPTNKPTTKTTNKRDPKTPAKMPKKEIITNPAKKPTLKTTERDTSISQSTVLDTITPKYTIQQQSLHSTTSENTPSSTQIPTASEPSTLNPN

T4: recombinant RSV protein G, G(B): residues 66-292 of strain 18537 (human respiratory syncytial virus …, UniProt P20896 66-292)
T4 construct: also called soluble recombinant G protein; recombinant protein G
T4 sequence: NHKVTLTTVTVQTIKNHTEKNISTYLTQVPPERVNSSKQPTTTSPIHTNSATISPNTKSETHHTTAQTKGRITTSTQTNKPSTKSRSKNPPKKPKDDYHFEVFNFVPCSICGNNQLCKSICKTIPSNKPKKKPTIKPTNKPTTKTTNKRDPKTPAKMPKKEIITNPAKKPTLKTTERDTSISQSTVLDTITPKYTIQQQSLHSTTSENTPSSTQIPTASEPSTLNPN


Columns and labels:
[1] = target: T1, recombinant human fractalkine (CX3CL1; …); assay: ELISA on recombinant human fractalkine
Protocol: Selected clones identified as protein G-specific were also tested for cross-reactivity with recombinant human fractalkine (CX3CL1; R&D systems) by ELISA. Anti-human CX3CL1/Fractalkine monoclonal antibody (R&D systems) was used as a positive control.

[2] = target: F protein of RSV strain Long (human respiratory syncytial virus …, UniProt P12568 26-574); assay: cell-based or functional assay
Chain of F protein of RSV strain Long (P12568 26-574): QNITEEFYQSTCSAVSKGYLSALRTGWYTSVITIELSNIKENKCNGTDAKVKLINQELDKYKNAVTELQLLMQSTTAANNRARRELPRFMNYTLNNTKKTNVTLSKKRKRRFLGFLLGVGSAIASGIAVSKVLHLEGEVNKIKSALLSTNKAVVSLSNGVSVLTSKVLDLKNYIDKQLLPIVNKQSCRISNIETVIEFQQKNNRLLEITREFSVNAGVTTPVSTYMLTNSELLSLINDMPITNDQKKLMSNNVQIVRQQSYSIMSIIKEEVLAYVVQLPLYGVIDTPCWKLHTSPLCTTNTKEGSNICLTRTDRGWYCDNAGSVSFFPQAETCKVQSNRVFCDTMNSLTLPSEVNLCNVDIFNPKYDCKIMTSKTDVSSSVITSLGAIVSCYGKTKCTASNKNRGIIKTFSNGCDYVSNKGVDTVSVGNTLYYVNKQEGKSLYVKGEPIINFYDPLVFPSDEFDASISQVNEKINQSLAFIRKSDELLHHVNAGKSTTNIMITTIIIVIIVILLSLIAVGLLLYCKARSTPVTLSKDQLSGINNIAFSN

[3] = target: F protein of RSV strain 18537 (human respiratory syncytial virus …, UniProt P13843 26-574); assay: cell-based or functional assay
Chain of F protein of RSV strain 18537 (P13843 26-574): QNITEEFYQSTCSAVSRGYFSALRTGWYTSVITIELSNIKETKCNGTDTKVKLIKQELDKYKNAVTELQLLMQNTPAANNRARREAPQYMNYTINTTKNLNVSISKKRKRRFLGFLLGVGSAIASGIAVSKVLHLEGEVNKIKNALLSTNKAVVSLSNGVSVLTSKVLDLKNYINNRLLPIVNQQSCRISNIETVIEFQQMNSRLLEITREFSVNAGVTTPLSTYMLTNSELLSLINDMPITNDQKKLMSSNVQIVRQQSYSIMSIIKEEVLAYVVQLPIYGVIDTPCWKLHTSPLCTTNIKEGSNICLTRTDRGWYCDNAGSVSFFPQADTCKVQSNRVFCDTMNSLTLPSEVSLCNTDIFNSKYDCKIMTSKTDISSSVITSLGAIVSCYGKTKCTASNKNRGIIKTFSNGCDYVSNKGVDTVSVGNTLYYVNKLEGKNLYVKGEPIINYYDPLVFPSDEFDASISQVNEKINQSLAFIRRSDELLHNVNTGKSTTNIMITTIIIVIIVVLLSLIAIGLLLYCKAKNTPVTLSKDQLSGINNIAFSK

[4] = target: F protein of RSV strain A2 (human respiratory syncytial virus …, UniProt P03420 26-574); assay: cell-based or functional assay
Chain of F protein of RSV strain A2 (P03420 26-574): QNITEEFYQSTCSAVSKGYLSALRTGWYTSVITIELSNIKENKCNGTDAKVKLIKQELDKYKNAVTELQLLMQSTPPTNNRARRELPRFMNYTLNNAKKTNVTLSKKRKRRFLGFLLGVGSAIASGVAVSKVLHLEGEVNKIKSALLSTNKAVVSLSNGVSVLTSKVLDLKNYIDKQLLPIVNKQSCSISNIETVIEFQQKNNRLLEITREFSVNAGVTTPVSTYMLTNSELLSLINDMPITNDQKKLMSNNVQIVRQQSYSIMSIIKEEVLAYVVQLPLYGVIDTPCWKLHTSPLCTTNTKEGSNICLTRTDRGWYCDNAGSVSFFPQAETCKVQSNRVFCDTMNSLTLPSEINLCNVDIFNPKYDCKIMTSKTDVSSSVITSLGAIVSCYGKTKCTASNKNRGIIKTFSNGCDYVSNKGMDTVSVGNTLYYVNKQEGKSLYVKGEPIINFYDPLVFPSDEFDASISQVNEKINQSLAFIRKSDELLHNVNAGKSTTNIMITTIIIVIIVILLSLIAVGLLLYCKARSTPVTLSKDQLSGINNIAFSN

[5] = target: T2, G protein of RSV strain Long (subtype A); assay: cell-based or functional assay
[6] = target: T3, G protein of RSV strain 18537 (subtype …); assay: cell-based or functional assay
[7] = target: T4, recombinant RSV protein G, G(B): …; assay: SPR Biacore 3000, Fab over amine-coupled recombinant protein G

Binder	binding result [1]	EC50, PRNT with complement, RSV Long [5] [µg/mL]	other results
antibody 841 (clone 841) (antibody, human IgG1, kappa, V domains shown) VH: QVQLVQSGAEVKKPGASVKVSCKASGYTFISFGISWVRQAPGQGLEWMGWISAYNGNTDYAQRLQDRVTMTRDTATSTAYLELRSLKSDDTAVYYCTRDESMLRGVTEGFGPIDYWGQGTLVTVSS VL: not shown	no binding		
antibody 856 (clone 856) (antibody, human IgG1, kappa, V domains shown) VH: QVQLVQSGAEVKKPGASVKVSCKASGYTFSNYGFSWVRQAPGRGLEWMGWISAYNGNTYYAQNLQGRVTMTTDTSTTTAYMVLRSLRSDDTAMYYCARDGNTAGVDMWSRDGFDIWGQGTMVTVSS VL: DIVMTQTPLSLPVTPGEPASISCRSSQSLLDSNDGNTYLDWYLQKPGQSPQLLIYTFSYRASGVPDRFSGSGSGTDFTLKISRVEAEDVGVYYCMQRIEFPYTFGQGTKLEIKR	no binding		
antibody 835 (clone 835) (antibody, human IgG1, kappa, V domains shown) VH: QVQLVQSGAEVKRPGASVKVSCKASGYTFISYGFSWVRQAPGQGLEWMGWSSVYNGDTNYAQKFHGRVNMTTDTSTNTAYMELRGLRSDDTAVYFCARDRNVVLLPAAPFGGMDVWGQGTMVTVSS VL: DIQLTQSPSFLSASLEDRVTITCRASQGISSYLAWYQQKPGKAPKLLLDAASTLQSGVPSRFSGSGSGTEFTLTISSLQPEDFATYYCQQLNSYPRTFGQGTKVDIKR	no binding		
Palivizumab (Synagis) (antibody, V domains shown) VH: QVTLRESGPALVKPTQTLTLTCTFSGFSLSTSGMSVGWIRQPPGKALEWLADIWWDDKKDYNPSLKSRLTISKDTSKNQVVLKVTNMDPADTATYYCARSMITNWYFDVWGAGTTVTVSS VL: DIQMTQSPSTLSASVGDRVTITCKCQLSVGYMHWYQQKPGKAPKLLIYDTSKLASGVPSRFSGSGSGTEFTLTISSLQPDDFATYYCFQGSGYPFTFGGGTKLEIK			EC50, PRNT with complement, RSV Long [2]: 0.14 µg/mL; EC50, PRNT with complement, RSV 18537 [3]: 0.2 µg/mL; EC50, PRNT with complement, RSV A2 [4]: 0.15 µg/mL
antibody 855 (clone 855) (antibody, human IgG1, kappa, V domains shown) VH: QVQLVQSGPEVKKPGASVKVSCKASGYVLTNYAFSWVRQAPGQGLEWLGWISGSNGNTYYAEKFQGRVTMTTDTSTSTAYMELRSLRSDDTAVYFCARDLLRSTYFDYWGQGTLVTVSS VL: DIQMTQSPSSVSASVGDRVTITCRASQAISNWLAWYQQKPGKAPKLLIYAASSLQSGVPSRFSGSGSGTDFTLTISGLQPEDFATYYCQQADTFPFTFGPGTKVDIKR	no binding	6.35	
antibody 793 (clone 793) (antibody, human IgG1, kappa, V domains shown) VH: QVQLVESGGGLVKPGGSLRLSCAASGFPFGDYYMSWIRQAPGKGLEWVAYINRGGTTIYYADSVKGRFTISRDNAKNSLFLQMNSLRAGDTALYYCARGLILALPTATVELGAFDIWGQGTMVTVSS VL: DIQMTQSPSSLSASVGDRVTITCRASQSITGYLNWYQQKPGKAPKLLIYATSTLQSEVPSRFSGSGSGTDFTLTISSLQPEDFATYYCQQSYNTLTFGGGTKVEIKR	no binding	2.52	EC50, PRNT with complement, RSV 18537 [6]: 0.09 µg/mL
Fab fragment of antibody 859 (Fab, also called Fab clone 859) VH: QVQLVESGGGVVQPGRSLRLSCAVSGSSFSKYGIHWVRQAPGKGLEWVAVISYDGSKKYFTDSVKGRFTIARDNSQNTVFLQMNSLRAEDTAVYYCATGGGVNVTSWSDVEHSSSLGYWGLGTLVTVSS light: DIQMTQSPSSLSASVGDRVTITCRASQGIRNYLAWYQQKPGKVPKLLVFAASTLQSGVPSRFSGSGSGTDFTLTISSLQPEDVATYYCQRYNSAPLTFGGGTKVEIKRTVAAPSVFIFPPSDEQLKSGTASVVCLLNNFYPREAKVQWKVDNALQSGNSQESVTEQDSKDSTYSLSSTLTLSKADYEKHKVYACEVTHQGLSSPVTKSFNRGEC			Kd [7]: 0.12 nM; koff [7]: 4.63e-05 s⁻¹; kon [7]: 380000 M⁻¹ s⁻¹; t1/2 [7]: 4.17 h
antibody 816 (clone 816) (antibody, human IgG1, kappa, V domains shown) VH: EVQLLESGGGLVQPGGSLRLSCVASGFTFSTYAMTWVRQAPGKGLEWVSVIRASGDSEIYADSVRGRFTISRDNSKNTVFLQMDSLRVEDTAVYFCANIGQRRYCSGDHCYGHFDYWGQGTLVTVSS VL: DIVMTQSPLSLPVTPGEPASISCRSSQSLLHSDGRYYVDWYLQKPGQSPHLLIYLASNRASGVPDRFTGSGSGTDFTLKISRVEAEDVGVYYCMQGLHTPWTFGQGTKVDIKR	no binding		
antibody 888 (clone 888) (antibody, human IgG1, kappa, V domains shown) VH: QLQLQESGPGLVKPSETLSLTCTASGGSINSSNFYWGWIRQPPGKGLEWIGSIFYSGTTYYNPSLKSRVTISVDTSKNQFSLKLSPVTAADTAVYHCARHGFRYCNNGVCSINLDAFDIWGQGTMVTVSS VL: DIVMTQSPLSLPVTPGAPASISCRSSQSLLRTNGYNYLDWYLQKPGQSPQLLIYLGSIRASGVPDRFSGSGSGTDFTLKISRVEAEDVGVYYCMQSLQTSITFGQGTRLEIKR	no binding	0.14	
antibody 853 (clone 853) (antibody, human IgG1, kappa, V domains shown) VH: EVQLVQSGAEVKKPGQSLKISCKTSGYIFTNYWIGWVRQRPGKGLEWMGVIFPADSDARYSPSFQGQVTISADKSIGTAYLQWSSLKASDTAIYYCARPKYYFDSSGQFSEMYYFDFWGQGTLVTVSS VL: EIVLTQSPGTLSLSPGERATLSCRASQSVSSNYLAWYQQKPGQAPRLLIYGASSRAAGMPDRFSGSGSGTDFTLTISRLEPEDFAVYYCQQYGNSPLTFGGGTEVEIKR	no binding	1.49	EC50, PRNT with complement, RSV Long (new determination) [5]: 0.13 µg/mL; EC50, PRNT with complement, RSV 18537 [6]: 0.14 µg/mL
